Test results from patent publication US20210032329A1.

Assays:
[1] = target: marmoset SEMA4D-His (marmoset); test: BIACORE; antibody captured with goat anti-human IgG Fc, marmoset SEMA4D-His as analyte (second row for this antibody)
[2] = target: marmoset SEMA4D-His (marmoset); test: BIACORE; antibody captured with goat anti-human IgG Fc, marmoset SEMA4D-His as analyte
[3] = target: human SEMA4D-His (human) (UniProt Q92854); test: receptor blocking; antibody dilution series pre-incubated with SEMA4D-His, binding to 293PLXNB1 cells (Plexin B1) read by flow cytometry
[4] = target: mouse SEMA4D-His (mouse) (UniProt O09126); test: as above
[5] = target: rat SEMA4D-His (rat); test: as above
[6] = target: cynomolgus monkey SEMA4D-His (cynomolgus monkey); test: as above

marmoset SEMA4D-His (marmoset), sequence (chain, as listed by the source): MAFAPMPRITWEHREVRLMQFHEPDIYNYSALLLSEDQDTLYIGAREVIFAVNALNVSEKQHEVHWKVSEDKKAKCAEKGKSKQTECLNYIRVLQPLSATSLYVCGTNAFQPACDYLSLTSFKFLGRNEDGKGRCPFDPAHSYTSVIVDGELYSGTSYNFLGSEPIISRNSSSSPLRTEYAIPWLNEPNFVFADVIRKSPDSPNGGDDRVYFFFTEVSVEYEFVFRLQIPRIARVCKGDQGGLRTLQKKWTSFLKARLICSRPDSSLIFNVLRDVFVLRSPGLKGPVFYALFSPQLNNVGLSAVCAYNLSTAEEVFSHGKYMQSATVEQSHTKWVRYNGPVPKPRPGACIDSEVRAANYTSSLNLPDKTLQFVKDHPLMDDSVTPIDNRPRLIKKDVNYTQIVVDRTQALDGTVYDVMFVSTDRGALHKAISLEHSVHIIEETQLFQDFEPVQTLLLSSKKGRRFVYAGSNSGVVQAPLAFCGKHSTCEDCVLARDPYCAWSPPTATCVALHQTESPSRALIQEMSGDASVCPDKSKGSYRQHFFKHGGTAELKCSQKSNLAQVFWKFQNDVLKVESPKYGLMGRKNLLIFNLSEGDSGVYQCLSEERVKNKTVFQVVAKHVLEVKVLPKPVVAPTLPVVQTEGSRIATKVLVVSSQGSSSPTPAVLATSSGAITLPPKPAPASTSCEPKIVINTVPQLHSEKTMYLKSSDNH
rat SEMA4D-His (rat), sequence (chain, as listed by the source): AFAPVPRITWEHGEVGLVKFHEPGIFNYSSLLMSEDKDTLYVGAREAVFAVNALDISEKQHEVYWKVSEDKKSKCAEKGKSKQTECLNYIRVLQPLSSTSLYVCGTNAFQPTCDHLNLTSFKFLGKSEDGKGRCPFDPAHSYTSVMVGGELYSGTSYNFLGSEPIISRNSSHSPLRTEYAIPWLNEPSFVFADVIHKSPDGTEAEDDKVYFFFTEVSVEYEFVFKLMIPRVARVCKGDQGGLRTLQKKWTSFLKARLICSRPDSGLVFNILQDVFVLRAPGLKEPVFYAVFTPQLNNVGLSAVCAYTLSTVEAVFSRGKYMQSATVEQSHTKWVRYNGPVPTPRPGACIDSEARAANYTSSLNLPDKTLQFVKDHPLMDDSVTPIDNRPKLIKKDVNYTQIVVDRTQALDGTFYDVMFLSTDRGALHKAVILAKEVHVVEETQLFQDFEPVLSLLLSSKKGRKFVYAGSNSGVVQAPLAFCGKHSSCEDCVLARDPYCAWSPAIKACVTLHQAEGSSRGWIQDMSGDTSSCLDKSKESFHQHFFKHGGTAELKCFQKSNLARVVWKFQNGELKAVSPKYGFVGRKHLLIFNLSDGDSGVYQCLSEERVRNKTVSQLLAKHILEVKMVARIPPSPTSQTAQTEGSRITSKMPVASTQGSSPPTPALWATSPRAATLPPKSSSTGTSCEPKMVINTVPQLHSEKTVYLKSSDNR
human SEMA4D-His (human), sequence (Q92854 22-734 limits assumed): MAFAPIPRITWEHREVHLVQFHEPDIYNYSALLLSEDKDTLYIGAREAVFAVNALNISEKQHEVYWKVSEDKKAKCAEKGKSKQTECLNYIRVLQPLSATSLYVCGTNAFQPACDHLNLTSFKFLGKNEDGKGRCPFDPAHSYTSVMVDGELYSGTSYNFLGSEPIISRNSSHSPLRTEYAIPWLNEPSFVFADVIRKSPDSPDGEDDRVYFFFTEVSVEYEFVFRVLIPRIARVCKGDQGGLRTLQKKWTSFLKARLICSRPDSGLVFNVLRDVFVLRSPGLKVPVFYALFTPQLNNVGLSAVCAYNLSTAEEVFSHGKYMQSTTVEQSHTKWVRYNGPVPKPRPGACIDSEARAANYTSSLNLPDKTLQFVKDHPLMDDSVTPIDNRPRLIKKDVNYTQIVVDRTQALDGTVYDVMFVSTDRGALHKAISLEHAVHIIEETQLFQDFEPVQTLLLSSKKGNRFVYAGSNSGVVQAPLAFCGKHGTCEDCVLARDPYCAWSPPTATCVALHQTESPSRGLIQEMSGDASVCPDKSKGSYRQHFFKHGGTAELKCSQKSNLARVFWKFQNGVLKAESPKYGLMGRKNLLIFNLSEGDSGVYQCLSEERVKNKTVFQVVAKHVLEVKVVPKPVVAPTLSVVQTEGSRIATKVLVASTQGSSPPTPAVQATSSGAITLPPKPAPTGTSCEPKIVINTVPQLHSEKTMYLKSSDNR
mouse SEMA4D-His (mouse), sequence (O09126 24-733 limits assumed): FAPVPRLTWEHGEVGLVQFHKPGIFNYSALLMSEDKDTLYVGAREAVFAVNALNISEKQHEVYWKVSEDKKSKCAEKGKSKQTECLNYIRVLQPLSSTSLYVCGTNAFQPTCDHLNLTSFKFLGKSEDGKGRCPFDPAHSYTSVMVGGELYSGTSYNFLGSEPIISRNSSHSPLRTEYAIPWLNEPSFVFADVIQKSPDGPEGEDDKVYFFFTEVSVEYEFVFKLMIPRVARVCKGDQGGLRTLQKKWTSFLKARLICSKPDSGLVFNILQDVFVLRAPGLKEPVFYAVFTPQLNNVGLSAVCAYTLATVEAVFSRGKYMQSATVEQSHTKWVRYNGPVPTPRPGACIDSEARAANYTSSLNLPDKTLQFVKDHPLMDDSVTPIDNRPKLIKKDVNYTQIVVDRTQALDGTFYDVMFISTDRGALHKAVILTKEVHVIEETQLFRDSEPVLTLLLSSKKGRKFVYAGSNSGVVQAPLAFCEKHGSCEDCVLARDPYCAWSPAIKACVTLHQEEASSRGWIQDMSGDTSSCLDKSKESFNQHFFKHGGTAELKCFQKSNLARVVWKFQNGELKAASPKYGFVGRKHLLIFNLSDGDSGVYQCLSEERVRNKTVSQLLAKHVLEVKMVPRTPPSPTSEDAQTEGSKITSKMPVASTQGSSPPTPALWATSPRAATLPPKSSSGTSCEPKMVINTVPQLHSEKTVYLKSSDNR

Ka [1]: 2.4e+08 M⁻¹
Kd [1]: 4.17 nM
koff [1]: 0.00126 s⁻¹
kon [1]: 302000 M⁻¹ s⁻¹
Ka [2]: 2.06e+08 M⁻¹
Kd [2]: 4.86 nM
koff [2]: 0.00118 s⁻¹
kon [2]: 243000 M⁻¹ s⁻¹
EC50 [3]: 0.3 nM
EC50 [4]: 0.4 nM
EC50 [5]: 0.6 nM
EC50 [6]: 0.5 nM
B1: humanized MAb 2503 (VX15/2503) (antibody, INN chains, looked up, V domains shown)
VH: QVQLVQSGAEVKKPGSSVKVSCKASGYSFSDYYMHWVRQAPGQGLEWMGQINPTTGGASYNQKFKGKATITVDKSTSTAYMELSSLRSEDTAVYYCARYYYGRHFDVWGQGTTVTVSS
VL: DIVMTQSPDSLAVSLGERATINCKASQSVDYDGDSYMNWYQQKPGQPPKLLIYAASNLESGVPDRFSGSGSGTDFTLTISSLQAEDVAVYYCQQSNEDPYTFGQGTKLEIK
